Experimental data as given in paper PMC5737801 (Nucleic Acids Research, 2017).
Residue numbers refer to the chain shown, from its start. Names may count otherwise.

Legend:
SAXS = biological target: the molecule itself; test: SAXS
SEC = biological target: the molecule itself; test: SEC
[1] = biological target: T1, GST-TyrRS fusion protein, wild type, full length (human, UniProt P54577 1-528); test: BLI
T1 sequence: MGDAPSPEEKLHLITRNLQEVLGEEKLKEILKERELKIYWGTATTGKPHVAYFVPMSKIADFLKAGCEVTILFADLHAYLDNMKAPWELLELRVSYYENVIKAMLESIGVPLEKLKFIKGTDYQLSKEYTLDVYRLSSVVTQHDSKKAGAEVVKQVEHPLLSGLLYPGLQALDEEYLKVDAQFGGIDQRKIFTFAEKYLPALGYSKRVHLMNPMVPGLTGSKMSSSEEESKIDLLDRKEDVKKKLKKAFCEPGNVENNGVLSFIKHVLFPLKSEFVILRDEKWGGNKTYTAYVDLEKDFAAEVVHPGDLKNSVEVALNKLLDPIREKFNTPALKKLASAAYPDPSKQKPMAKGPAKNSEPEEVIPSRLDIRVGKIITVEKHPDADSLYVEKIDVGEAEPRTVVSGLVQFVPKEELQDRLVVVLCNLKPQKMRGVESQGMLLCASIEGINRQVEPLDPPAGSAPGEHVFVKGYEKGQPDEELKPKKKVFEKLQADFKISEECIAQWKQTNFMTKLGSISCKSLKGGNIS

[2] = biological target: T2, GST-TyrRS E196K fusion protein, full length (human, UniProt P54577 1-528, E196K); test: BLI
T2 sequence: T1 sequence with E196K

[3] = biological target: T3, GST-TyrRS Δ153-156 fusion protein, full length (human, UniProt P54577 1-528, Δ153-156VKQV); test: BLI
T3 sequence: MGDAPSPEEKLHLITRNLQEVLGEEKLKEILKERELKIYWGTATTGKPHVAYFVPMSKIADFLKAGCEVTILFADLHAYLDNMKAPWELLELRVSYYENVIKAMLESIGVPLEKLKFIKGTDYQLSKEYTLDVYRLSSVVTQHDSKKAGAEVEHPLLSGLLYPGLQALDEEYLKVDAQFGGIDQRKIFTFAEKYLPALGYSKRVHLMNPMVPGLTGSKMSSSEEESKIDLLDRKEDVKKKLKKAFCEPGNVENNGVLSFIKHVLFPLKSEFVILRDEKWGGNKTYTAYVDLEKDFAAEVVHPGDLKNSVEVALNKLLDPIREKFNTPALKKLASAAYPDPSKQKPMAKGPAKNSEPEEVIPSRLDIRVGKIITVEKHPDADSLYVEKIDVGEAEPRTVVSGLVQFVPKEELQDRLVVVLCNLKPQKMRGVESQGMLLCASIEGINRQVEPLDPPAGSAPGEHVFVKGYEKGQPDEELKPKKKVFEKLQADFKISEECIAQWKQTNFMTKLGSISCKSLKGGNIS

B1: full-length tyrosyl-tRNA synthetase G41R mutant (TyrRS^G41R), C-terminal hexahistidine tag (enzyme)
chain: T1 sequence with G41R
- stoichiometry N (SAXS): 2
- Kd (SEC): ~200 nM

B2: full-length tyrosyl-tRNA synthetase E196K mutant (TyrRS^E196K), C-terminal hexahistidine tag (enzyme)
chain: T1 sequence with E196K
- stoichiometry N (SAXS): 2

B3: RBCC (aa 65–378 of TRIM28) (domain or fragment)
chain: CGVCRERLRPEREPRLLPCLHSACSACLGPAAPAAANSSGDGGAAGDGTVVDCPVCKQQCFSKDIVENYFMRDSGSKAATDAQDANQCCTSCEDNAPATSYCVECSEPLCETCVEAHQRVKYTKDHTVRSTGPAKSRDGERTVYCNVHKHEPLVLFCESCDTLTCRDCQLNAHKDHQYQFLEDAVRNQRKLLASLVKRLGDKHATLQKSTKEVRSSIRQVSDVQKRVQVDVKMAILQIMKELNKRGRVLVNDAQKVTEGQQERLERQHWTMTKIQKHQEHILRFASWALESDNNTALLLSKKLIYFQLHRALKM
- binding result [1]: binds
- fold increase in binding affinity against TyrRS^WT [2]: 5 fold
- fold increase in binding affinity against TyrRS^WT [3]: 5 fold

B4: full-length tyrosyl-tRNA synthetase, wild type (TyrRS^WT), C-terminal hexahistidine tag (enzyme)
chain: T1 sequence
- Kd (SEC): ~200 nM

B5: full-length tyrosyl-tRNA synthetase Δ153-156 deletion mutant (TyrRS^Δ153-156), C-terminal hexahistidine tag (enzyme)
chain: T3 sequence
- Kd (SEC): ~200 nM
